Laboratory results as given in patent US20210113615A1 (LUDWIG INSTITUTE FOR CANCER RESEARCH, published 2021).
Changes are numbered by the printed parent chain. Read-outs that look alike come from different tables or passages of the source.

B1: Des3a (slightly weaker affinity binder, GLU124ALA) (designed binder)
chain: QRWELALGRFLAYLSWVSTLSEQVQEELLSSQVTQELRALMDETMKELKAYKSELEEQLTPVAEETRARLSKELQAAQARLGADMEDVRGRLVQYRGEVQAMLGQSTEELRVRLASHLIALQLRLIGDAFDLQKRLAVYQAGA
B2: Des3c (weakest affinity Des3 binder, ASP240ALA) (designed binder)
chain: B1 chain with A12E, D128A
B3: Des3b (medium affinity binder, LEU235ALA) (designed binder)
chain: B1 chain with A12E, L123A
B4: LD3 (lead design 3: Bcl-XL binder designed on human apolipoprotein E4, PDB ID 1LE4 chain A) (designed binder)
chain: HHHHHHQRWELALGRFLEYLSWVSTLSEQVQEELLSSQVTQELRALMDETMKELKAYKSELEEQLTPVAEETRARLSKELQAAQARLGADMEDVRGRLVQYRGEVQAMLGQSTEELRVRLASHLIALQLRLIGDAFDLQKRLAVYQAGA
notes: No single sentence states these identities; also called Des3; DES3

Experiments:
[1] = target: T1, Bcl-2 (BCL-2 sequence as tested in Example 5) (Homo sapiens (Human), UniProt P10415 1-207); assay: SPR, Biacore 8K; Bcl-2 immobilized, Des3 variant injected in serial dilutions
T1 construct: It was immobilized in SPR
Method: (§1) Affinity (nM) values were calculated by Surface plasmon resonance (SPR) data on a Biacore 8K device.

[2] = target: T2, Bcl-XL (B-cell lymphoma-extra-large), wildtype sequence as tested (human, UniProt Q07817 1-209); assay: SPR, LD3:Bcl-XL binding interaction, sensorgrams with fitted curves
T2 construct: It is shorter than full-length Bcl-xL: E96 of the wildtype numbering stands at position 56; Bcl-XL was immobilized in SPR; also called Protein B

[3] = target: T2, Bcl-XL (B-cell lymphoma-extra-large), …; assay: SPR, Biacore 8K; Bcl-xL immobilized, Des3 variant injected in serial dilutions
Method: as §1

[4] = target: T2, Bcl-XL (B-cell lymphoma-extra-large), …
[5] = target: T1, Bcl-2 (BCL-2 sequence as tested in …); assay: not stated here (heading in the sequence table); target Bcl-2 (first of the two values, 'respectively')
[6] = target: T2, Bcl-XL (B-cell lymphoma-extra-large), …; assay: method not stated for this value (Example 1); Example 1, binder named 1LE4A; approximate value, method not stated

T2 sequence (Q07817 other isoform, or with tags, fused parts or gaps limits assumed): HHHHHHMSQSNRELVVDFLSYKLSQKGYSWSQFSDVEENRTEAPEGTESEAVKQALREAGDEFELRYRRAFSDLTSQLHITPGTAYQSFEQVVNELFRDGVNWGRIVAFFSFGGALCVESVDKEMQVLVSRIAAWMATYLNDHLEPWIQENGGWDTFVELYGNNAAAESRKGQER
T1 sequence (P10415 1-207 limits assumed): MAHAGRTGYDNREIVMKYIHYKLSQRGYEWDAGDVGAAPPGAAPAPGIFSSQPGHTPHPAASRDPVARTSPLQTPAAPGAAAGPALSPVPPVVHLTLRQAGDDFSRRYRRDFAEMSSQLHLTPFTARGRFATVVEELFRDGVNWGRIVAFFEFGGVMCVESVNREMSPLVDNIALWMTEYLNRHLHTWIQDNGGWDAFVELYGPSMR

| Binder | Kd [1] [nM] | Kd [2] [nM] | Kd [3] [nM] | Kd [4] [nM] | Kd [5] [nM] | Kd [6] [nM] |
| --- | --- | --- | --- | --- | --- | --- |
| B1 | 16.8 | – | – | – | – | – |
| B2 | 147 | – | – | – | – | – |
| B3 | 64.1 | – | – | – | – | – |
| B4 | 0.8 | ~0.004 | 0.004 | 0.004 | 0.8 | ~0.4 |
